Experiment [1] concerns the target recombinant hPD-1 (construct not stated) (human) (UniProt Q15116). Put plainly: ELISA.
Experiment [2] deals with recombinant cynoPD-1 (construct not stated) (cynomolgus monkey) (UniProt B0LAJ3). Put plainly: ELISA.
For experiment [3], the target named is human PD-1 expressed on cells (human) (UniProt Q15116). The experiment is described as follows: flow cytometry, CHO-S hPD-1.
In experiment [4] the target is cynomolgus PD-1 expressed on cells (cynomolgus monkey) (UniProt B0LAJ3). The experiment is described as follows: flow cytometry, CHO-S Cyno-PD-1.
Sequence of cynomolgus PD-1 expressed on cells (cynomolgus monkey) (B0LAJ3 entry or part of it limits assumed): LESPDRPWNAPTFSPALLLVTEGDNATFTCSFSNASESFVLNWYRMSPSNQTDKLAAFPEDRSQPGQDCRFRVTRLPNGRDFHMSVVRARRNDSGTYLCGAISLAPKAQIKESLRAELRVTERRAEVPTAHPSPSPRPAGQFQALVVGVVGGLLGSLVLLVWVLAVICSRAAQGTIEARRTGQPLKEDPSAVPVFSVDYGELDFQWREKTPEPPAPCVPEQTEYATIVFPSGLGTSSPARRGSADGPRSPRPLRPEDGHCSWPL

Sequence of recombinant hPD-1 (construct not stated) (human) (Q15116 25-167 limits assumed): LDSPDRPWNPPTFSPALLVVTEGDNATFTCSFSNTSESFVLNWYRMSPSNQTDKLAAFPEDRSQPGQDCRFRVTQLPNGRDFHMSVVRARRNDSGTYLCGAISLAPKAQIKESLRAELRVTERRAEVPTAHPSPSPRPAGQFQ
Sequence of recombinant cynoPD-1 (construct not stated) (cynomolgus monkey) (B0LAJ3 entry or part of it limits assumed): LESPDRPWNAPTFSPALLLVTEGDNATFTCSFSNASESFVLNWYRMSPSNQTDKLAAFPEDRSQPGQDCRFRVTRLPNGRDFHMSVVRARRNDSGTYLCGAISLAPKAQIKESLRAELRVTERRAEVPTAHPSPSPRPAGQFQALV
Sequence of human PD-1 expressed on cells (human) (Q15116 25-288): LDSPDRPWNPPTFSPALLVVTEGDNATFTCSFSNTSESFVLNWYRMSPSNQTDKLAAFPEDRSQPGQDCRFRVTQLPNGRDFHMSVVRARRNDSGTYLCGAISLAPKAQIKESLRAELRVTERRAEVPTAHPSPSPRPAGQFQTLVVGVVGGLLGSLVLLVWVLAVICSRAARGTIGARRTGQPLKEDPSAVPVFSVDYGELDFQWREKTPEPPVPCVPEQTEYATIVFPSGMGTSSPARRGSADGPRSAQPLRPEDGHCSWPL

Regarding NC.hIgG1 (antibody), the figures for the Max OD in experiment [1] and in experiment [2] were 0.05 OD and 0.07 OD, respectively. In addition, the Max MFI in experiment [3] was 184 MFI; in experiment [4] it was 206 MFI.

(Values after patent US20260207767A1.)
